The values below come from article PMC6549136.

The experiment concerns the target Rpc31, endogenous in hmt1Δ yeast cells (hypomethylated) (S. cerevisiae (endogenous in yeast cells)) (UniProt P17890). Nature of the experiment: co-IP; α-Rpc31 antibody cross-linked to magnetic beads; yeast lysates at 10 mg/ml, 2 h at 4°C; three washes with PBS, 0.5% Triton X-100, 2.5 mM MgCl2; immunoblot; cells before and after treatment with CPZ for 1 h. In general terms: Immunoblotting shows a protein as a band on a membrane.
Sequence of UniProt P17890 (P17890 whole entry, stated change not applied): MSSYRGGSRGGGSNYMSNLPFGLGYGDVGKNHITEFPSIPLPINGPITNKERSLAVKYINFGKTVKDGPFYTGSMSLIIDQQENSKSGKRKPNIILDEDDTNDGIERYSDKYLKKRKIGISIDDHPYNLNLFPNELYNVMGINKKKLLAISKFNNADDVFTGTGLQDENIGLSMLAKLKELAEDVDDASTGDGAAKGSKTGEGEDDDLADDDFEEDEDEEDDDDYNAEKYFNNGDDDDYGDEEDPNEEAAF

“Myc-tagged Maf1-7SA (from UniProt P41910 1-395) (natural protein)” yielded an association relative to that in WT cells, after CPZ (% lower than in WT cells) of 40.
